The results in this text go back to patent publication US20070042353A1, “HCV polymerase suitable for crystal structure analysis and method for using the enzyme” (Japan Tobacco Inc., priority 1999, published 2007).

Where no end group is shown, it is not given here.

For one data set, the target named is T1, NS5B544 (Hepatitis C virus genotype 1b, UniProt P26663).
T1 construct: residue 1 (Ser) of the NS5B, a C-terminal amino acid residue of X′ is any one of amino acid residues 531 (Lys) to 544 (Gln); made in house; host or cells: E. coli
The data set can be described thus: HCV polymerase-inhibitory activity of synthetic peptide, pre-incubated with NS5B544. Type of data set: biochemical, HCV-BK strain. Conditions: final concentration of 30 μM; pre-incubated with NS5B544 at 25° C. for 30 minutes. On the procedure:
The reaction mixture with the composition mentioned below (30 μl) was reacted at 25° C. for 90 min. • Reaction mixture: the HCV polymerase obtained in Example 1 (1 μg/ml), the template RNA obtained in Example 5 (10 μg/ml), ATP (50 μM), GTP (50 μM), CTP (50 μM), UTP (2 μM), [5, 6-^3H] UTP (46 Ci/mmol (Amersham), 1.5 μCi), 20 mM Tris-HCl (pH 7.5), EDTA (1 mM), MgCl2 (5 mM), NaCl (50 mM), DTT (1 mM), BSA (0.01%).
The reaction was terminated by adding 10% trichloroacetic acid at 4° C. and 1% sodium diphosphate solution (150 μl) to the reaction mixture, and kept in ice for 15 min to precipitate the RNA. The RNA was trapped on a glass filter (Whatman, GF/C) by suction filtration. The filter was washed with a solution containing 1% trichloroacetic acid and 0.1% sodium diphosphate, then with 90% ethanol, and dried. A liquid scintillation cocktail (Packard) was added to the RNA synthesized by the enzyme reaction, and the radioactivity of the RNA was measured by a liquid scintillation counter.
Next, a synthetic peptide was prepared by a conventional method and its HCV polymerase-inhibitory activity was assessed. […] The synthetic peptide and NS5B544 were pre-incubated at 25° C. for 30 minutes, and the polymerase activity was measured in the same manner as in Example 5. […]

Another data set concerns HCV polymerase. Description: Measurement of the HCV polymerase activity (3H-UTP incorporation into template RNA). The class given is biochemical, HCV-BK strain. Conditions: radioactivity of the NS5B591 enzyme reaction as standard; polymerase 1 μg/ml, 25° C., 90 min. The text has this: The DNA fragment (148 bp) containing polyU and 3′ X sequence was completely synthesized using synthetic primers designed based on the sequence of the 3′ untranslational region of the HCV genome, and cloned into plasmid pBluescript SK II (+) (Stratagene). The cDNA encoding the full length NS5B prepared in the same manner as in Example 1 was digested with restriction enzyme KpnI to obtain the cDNA fragment covers the region from the restriction enzyme cleavage site to the stop codon. This cDNA fragment was ligated to the upstream of 3′ untranslational region DNA of pBluescript SK II (+). The DNA insert of about 450 bp in total was used as a template for preparing the template RNA. The plasmid was cleaved just after 3′ X sequence, circulated, treated with phenol/chloroform, and purified by ethanol precipitation to recover the DNA.
Using the purified DNA as a template, utilizing the promoter in pBluescript SK II (+), RNA was synthesized by the run-off method using MEGAscript RNA synthesis kit (Ambion), and T7 RNA polymerase (at 37° C. for 3 hours). DNaseI was added thereto and further incubated for 1 hour, and the template DNA was decomposed and removed to obtain the crude RNA product. The crude product was treated with phenol/chloroform, and purified by ethanol precipitation to obtain the desired template RNA. After confirming the quality of the RNA by agarose gel electrophoresis, the RNA was stored at −80° C. The RNA is a template suitable for the highly sensitive measurement of the polymerase activity. […]
The reaction was terminated by adding 10% trichloroacetic acid at 4° C. and 1% sodium diphosphate solution (150 μl) to the reaction mixture, and kept in ice for 15 min to precipitate the RNA. […] A liquid scintillation cocktail (Packard) was added to the RNA synthesized by the enzyme reaction, and the radioactivity of the RNA was measured by a liquid scintillation counter.
The activity of the HCV polymerase was calculated from the value of radioactivity in the enzyme reaction of each NS5B using the radioactivity in the enzyme reaction of NS5B591 as a standard.

With “KDLSGWFK [positions 546 to 551 of HCV polymerase NS5B with a Lys residue attached to both ends]”, in the data set with NS5B544, the “inhibition of the polymerase activity” value is 40 to 50%.

In the case of “NS5B531: consecutive amino acid sequence 1-531 of NS5B with histidine tag”, the “relative activity (%)” value in the data set with HCV polymerase is on record as 2149%.

“NS5B536: consecutive amino acid sequence 1-536 of NS5B with histidine tag”: the “relative activity (%)” value in the data set with HCV polymerase turned out to be 2107%.

As for “NS5B544: consecutive amino acid sequence 1-544 of NS5B with histidine tag GSHHDHHH”, the “relative activity (%)” value in the data set with HCV polymerase was 2014%.
